The target of data set [1] is E303A mutant of Emp46p^CC (yeast) (UniProt Q12396). The experiment in a line: cross-linking; dimethyl suberimidate (DMS) 0.1 mg/mL, 60 or 120 min, room temperature, 100 mM carbonate/bicarbonate buffer pH 8.9; SDS-PAGE.
The target of data set [2] is coiled-coil segment of Emp47p, Emp47p^CC (254–374) (yeast) (UniProt P43555). The data set is described as follows: native MS; nanoflow electrospray under non-denaturing conditions, 200 mM ammonium acetate pH 7.4; single proteins 43 uM; mixtures of Emp47p^CC 33 uM with 17, 33 and 67 uM Emp46p^CC, 25 °C, 30 min.
Data set [3] deals with the molecule itself. The data set is described as follows: native MS; mass spectra under non-denaturing conditions measured at pH 5.0; Emp47p^CC fixed, Emp46p^CC varied.
Data set [4] concerns the molecule itself. The experiment in a line: SEC; Superose 12 gel filtration; Emp47p^CC 70 uM alone or with Emp46p^CC or its E303A mutant; 10 mM phosphate buffer pH 7.4, 150 mM NaCl. In general terms: Size exclusion chromatography separates by hydrodynamic size, large species first.

As to “E303A mutant of Emp46p^CC (from UniProt Q12396 252-355) (domain or fragment)”, the stoichiometry N (usually a count of units in the complex or per binding partner) in data set [1] was determined as 2. Also, in data set [2], the stoichiometry N (Emp46p^CC per Emp47p^CC (printed as 1:3)) is 0.33.

B1: coiled-coil segment of Emp46p, Emp46p^CC (252–355) (domain or fragment, yeast, UniProt Q12396 298-401, looked up)
chain: EESFREKMPFSDKEESITSNELFEKMNKLEGKIMANDIDPLLRKMNKIVENERELIQRLRPLLDLKKTAISDDSFQDFLSMNANLDRLIKEQEKIRQDAKLYGK
notes: Emp46p, yeast putative cargo receptor, coiled-coil segment, residues 252-355; Monomer-dimer equilibrium by SV-AUC and native MS; also called wild-type Emp46p^CC; source: E. coli BL21-CodonPlus, purified (Chelating Sepharose, tag cleaved, gel filtration)
Regarding B1, the “stoichiometry N” value in data set [3] was 2.

B2: coiled-coil segment of Emp47p, Emp47p^CC (254–374) (domain or fragment, yeast, UniProt P43555 282-402, looked up)
chain: GKEKLIEKTAFDADKDKITNYELYKKLDRVEGKILANDINALETKLNDVIKVQQELLSFMTTITKQLSSKPPANNEKGTSTDDAIAEDKENFKDFLSINQKLEKVLVEQEKYREATKRHGQ
notes: Emp47p, yeast putative cargo receptor, coiled-coil segment, residues 254-374 by the methods (the results print 271–274); in mixtures with Emp46p^CC it forms 1:3 and 2:2 heterotetramers; the results print (271–274); also called Emp47^CC; source: E. coli BL21-CodonPlus, purified (Chelating Sepharose, tag cleaved, gel filtration)
For B2, the “stoichiometry N” value in data set [3] came to 3; in data set [4] it was 4.

These data come from publication PMC4598028, “pH-Dependent Assembly and Segregation of the Coiled-Coil Segments of Yeast Putative Cargo Receptors Emp46p and Emp47p” (PLoS ONE, 2015).
